Source: publication PMC9482650, “Quantitative fragmentomics allow affinity mapping of interactomes” (Nature Communications, 2022)

T1: FRMPD1, Q5SYB0
T1 sequence (Q5SYB0 52-145, limits assumed, looked up): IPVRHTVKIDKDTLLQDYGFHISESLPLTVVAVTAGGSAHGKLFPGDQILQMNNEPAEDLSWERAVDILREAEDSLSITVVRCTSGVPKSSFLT

T2: SNTG2, Q9NY99
T2 sequence (Q9NY99 68-166, limits assumed, looked up): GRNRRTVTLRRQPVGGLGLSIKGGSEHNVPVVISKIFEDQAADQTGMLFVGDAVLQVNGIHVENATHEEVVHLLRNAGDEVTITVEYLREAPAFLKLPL

T3: DVL3, Q92997
T3 sequence (Q92997 244-331, limits assumed, looked up): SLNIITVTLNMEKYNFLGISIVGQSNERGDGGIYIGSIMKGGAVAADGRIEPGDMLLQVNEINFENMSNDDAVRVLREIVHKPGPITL

T4: TJP3_3, O95049
T4 sequence (O95049 375-456, limits assumed, looked up): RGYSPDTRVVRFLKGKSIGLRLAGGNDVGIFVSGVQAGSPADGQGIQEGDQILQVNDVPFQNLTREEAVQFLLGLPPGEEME

T5: HTRA3, P83110
T5 sequence (P83110 354-453, limits assumed, looked up): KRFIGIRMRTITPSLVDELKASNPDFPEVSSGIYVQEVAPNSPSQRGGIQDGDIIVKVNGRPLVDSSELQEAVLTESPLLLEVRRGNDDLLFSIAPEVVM

T6: PDZD7_3, Q9H5P4
T6 sequence (Q9H5P4 857-944, limits assumed, looked up): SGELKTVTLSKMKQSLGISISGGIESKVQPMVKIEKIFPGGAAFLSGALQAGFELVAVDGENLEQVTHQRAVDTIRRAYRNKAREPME

T7: TX1BP3, O14907
T7 sequence (O14907 10-122, limits assumed, looked up): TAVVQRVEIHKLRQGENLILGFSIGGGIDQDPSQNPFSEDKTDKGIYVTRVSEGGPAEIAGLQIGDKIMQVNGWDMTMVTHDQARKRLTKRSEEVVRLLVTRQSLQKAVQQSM

T8: LIN7C, Q9NUP9
T8 sequence (Q9NUP9 88-185, limits assumed, looked up): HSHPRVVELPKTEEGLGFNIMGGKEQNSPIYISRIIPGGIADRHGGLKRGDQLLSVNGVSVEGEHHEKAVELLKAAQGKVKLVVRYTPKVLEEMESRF

T9: SNTA1, Q13424
T9 sequence (Q13424 82-180, limits assumed, looked up): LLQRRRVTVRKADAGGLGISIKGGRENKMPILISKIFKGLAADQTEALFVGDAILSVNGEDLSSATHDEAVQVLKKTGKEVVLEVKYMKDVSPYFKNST

T10: APBA3_1, O96018
T10 sequence (O96018 389-490, limits assumed, looked up): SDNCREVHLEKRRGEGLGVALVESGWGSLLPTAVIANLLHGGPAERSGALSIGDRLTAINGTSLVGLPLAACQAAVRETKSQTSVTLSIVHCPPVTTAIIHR

T11: RHPN1, Q8TCX5
T11 sequence (Q8TCX5 508-602, limits assumed, looked up): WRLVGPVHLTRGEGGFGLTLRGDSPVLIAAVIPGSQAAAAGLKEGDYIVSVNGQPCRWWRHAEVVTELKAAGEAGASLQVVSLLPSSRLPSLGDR

T12: PTPN13_1, Q12923
T12 sequence (Q12923 1088-1188, limits assumed, looked up): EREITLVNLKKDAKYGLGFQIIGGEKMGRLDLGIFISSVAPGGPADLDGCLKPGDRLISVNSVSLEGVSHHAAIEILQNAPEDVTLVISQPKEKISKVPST


Molecular target: MAST1, Q9Y2H9
Sequence (Q9Y2H9 962-1065): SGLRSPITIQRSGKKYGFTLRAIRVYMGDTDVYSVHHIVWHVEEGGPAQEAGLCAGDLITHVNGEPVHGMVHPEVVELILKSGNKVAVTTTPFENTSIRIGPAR
Assay: holdup assay
Set-up: key: below the threshold = too weak to quantify, mostly under pKd 3.1 to 4
Settings: plain residues with an end cap or a label only (N-terminal biotin on a linker: ado-ado)

| pKd | Binder |
| --- | --- |
| 4.97 | QELLEYETTV [XKR7, Q5GH72] |

Molecular target: T1, FRMPD1, Q5SYB0
Assay: holdup assay
Set-up: key: below the threshold = too weak to quantify, mostly under pKd 3.1 to 4
Settings: plain residues with an end cap or a label only (N-terminal biotin on a linker: ado-ado)

| pKd | Binder |
| --- | --- |
| below the threshold | QELLEYETTV [XKR7, Q5GH72] |

Molecular target: FRMPD2_2, Q68DX3
Sequence (Q68DX3 944-1038): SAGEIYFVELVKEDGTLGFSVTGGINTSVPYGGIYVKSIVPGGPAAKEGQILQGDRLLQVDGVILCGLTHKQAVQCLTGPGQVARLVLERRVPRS
Assay: holdup assay
Set-up: key: below the threshold = too weak to quantify, mostly under pKd 3.1 to 4
Settings: plain residues with an end cap or a label only (N-terminal biotin on a linker: ado-ado)

| pKd | Binder |
| --- | --- |
| 4.83 | QELLEYETTV [XKR7, Q5GH72] |

Molecular target: T2, SNTG2, Q9NY99
Assay: holdup assay
Set-up: key: below the threshold = too weak to quantify, mostly under pKd 3.1 to 4
Settings: plain residues with an end cap or a label only (N-terminal biotin on a linker: ado-ado)

| pKd | Binder |
| --- | --- |
| 4.69 | QELLEYETTV [XKR7, Q5GH72] |

Molecular target: T3, DVL3, Q92997
Assay: holdup assay
Set-up: key: below the threshold = too weak to quantify, mostly under pKd 3.1 to 4
Settings: plain residues with an end cap or a label only (N-terminal biotin on a linker: ado-ado)

| pKd | Binder |
| --- | --- |
| below the threshold | QELLEYETTV [XKR7, Q5GH72] |

Molecular target: T4, TJP3_3, O95049
Assay: holdup assay
Set-up: key: below the threshold = too weak to quantify, mostly under pKd 3.1 to 4
Settings: plain residues with an end cap or a label only (N-terminal biotin on a linker: ado-ado)

| pKd | Binder |
| --- | --- |
| 3.5 | QELLEYETTV [XKR7, Q5GH72] |

Molecular target: DLG2_3, Q15700
Assay: holdup assay
Set-up: key: below the threshold = too weak to quantify, mostly under pKd 3.1 to 4
Settings: plain residues with an end cap or a label only (N-terminal biotin on a linker: ado-ado)

| pKd | Binder |
| --- | --- |
| 3.55 | QELLEYETTV [XKR7, Q5GH72] |

Molecular target: T5, HTRA3, P83110
Assay: holdup assay
Set-up: key: below the threshold = too weak to quantify, mostly under pKd 3.1 to 4
Settings: plain residues with an end cap or a label only (N-terminal biotin on a linker: ado-ado)

| pKd | Binder |
| --- | --- |
| below the threshold | QELLEYETTV [XKR7, Q5GH72] |

Molecular target: FRMPD3, Q5JV73
Sequence (Q5JV73 12-100): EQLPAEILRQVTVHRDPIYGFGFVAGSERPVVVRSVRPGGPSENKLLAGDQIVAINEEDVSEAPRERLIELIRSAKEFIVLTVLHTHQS
Assay: holdup assay
Set-up: key: below the threshold = too weak to quantify, mostly under pKd 3.1 to 4
Settings: plain residues with an end cap or a label only (N-terminal biotin on a linker: ado-ado)

| pKd | Binder |
| --- | --- |
| below the threshold | QELLEYETTV [XKR7, Q5GH72] |

Molecular target: T6, PDZD7_3, Q9H5P4
Assay: holdup assay
Set-up: key: below the threshold = too weak to quantify, mostly under pKd 3.1 to 4
Settings: plain residues with an end cap or a label only (N-terminal biotin on a linker: ado-ado)

| pKd | Binder |
| --- | --- |
| 4.85 | QELLEYETTV [XKR7, Q5GH72] |

Molecular target: T7, TX1BP3, O14907
Assay: holdup assay
Set-up: key: below the threshold = too weak to quantify, mostly under pKd 3.1 to 4
Settings: plain residues with an end cap or a label only (N-terminal biotin on a linker: ado-ado)

| pKd | Binder |
| --- | --- |
| 3.92 | QELLEYETTV [XKR7, Q5GH72] |

Molecular target: PDZRN4_1, Q6ZMN7
Sequence (Q6ZMN7 213-318): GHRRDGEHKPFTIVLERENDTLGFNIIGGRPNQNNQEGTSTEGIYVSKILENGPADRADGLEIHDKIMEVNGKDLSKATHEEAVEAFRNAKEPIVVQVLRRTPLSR
Assay: holdup assay
Set-up: key: below the threshold = too weak to quantify, mostly under pKd 3.1 to 4
Settings: plain residues with an end cap or a label only (N-terminal biotin on a linker: ado-ado)

| pKd | Binder |
| --- | --- |
| 4.55 | QELLEYETTV [XKR7, Q5GH72] |

Molecular target: T8, LIN7C, Q9NUP9
Assay: holdup assay
Set-up: key: below the threshold = too weak to quantify, mostly under pKd 3.1 to 4
Settings: plain residues with an end cap or a label only (N-terminal biotin on a linker: ado-ado)

| pKd | Binder |
| --- | --- |
| 4.79 | QELLEYETTV [XKR7, Q5GH72] |

Molecular target: ARHGEF12, Q9NZN5-2
Sequence (Q9NZN5 other isoform, or with tags, fused parts or gaps): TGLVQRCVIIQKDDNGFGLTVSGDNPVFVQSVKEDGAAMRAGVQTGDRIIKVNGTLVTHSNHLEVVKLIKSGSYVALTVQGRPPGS
Assay: holdup assay
Set-up: key: below the threshold = too weak to quantify, mostly under pKd 3.1 to 4
Settings: plain residues with an end cap or a label only (N-terminal biotin on a linker: ado-ado)

| pKd | Binder |
| --- | --- |
| 4.02 | QELLEYETTV [XKR7, Q5GH72] |

Molecular target: GRIP2_3, Q9C0E4
Sequence (Q9C0E4 238-339): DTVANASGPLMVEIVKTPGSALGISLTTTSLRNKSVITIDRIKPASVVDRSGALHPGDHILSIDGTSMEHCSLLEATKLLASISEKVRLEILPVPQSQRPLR
Assay: holdup assay
Set-up: key: below the threshold = too weak to quantify, mostly under pKd 3.1 to 4
Settings: plain residues with an end cap or a label only (N-terminal biotin on a linker: ado-ado)

| pKd | Binder |
| --- | --- |
| below the threshold | QELLEYETTV [XKR7, Q5GH72] |

Molecular target: GORASP1, Q9BQQ3
Sequence (Q9BQQ3 1-208): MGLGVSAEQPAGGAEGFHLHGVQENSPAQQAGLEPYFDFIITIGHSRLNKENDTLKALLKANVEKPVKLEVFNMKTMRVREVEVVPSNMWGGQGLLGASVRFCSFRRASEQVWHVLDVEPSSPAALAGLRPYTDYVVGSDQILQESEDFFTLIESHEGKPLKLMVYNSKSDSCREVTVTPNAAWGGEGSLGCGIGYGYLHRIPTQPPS
Assay: holdup assay
Set-up: key: below the threshold = too weak to quantify, mostly under pKd 3.1 to 4
Settings: plain residues with an end cap or a label only (N-terminal biotin on a linker: ado-ado)

| pKd | Binder |
| --- | --- |
| 4.23 | QELLEYETTV [XKR7, Q5GH72] |

Molecular target: T9, SNTA1, Q13424
Assay: holdup assay
Set-up: key: below the threshold = too weak to quantify, mostly under pKd 3.1 to 4
Settings: plain residues with an end cap or a label only (N-terminal biotin on a linker: ado-ado)

| pKd | Binder |
| --- | --- |
| 4.98 | QELLEYETTV [XKR7, Q5GH72] |

Molecular target: FRMPD2_1, Q68DX3
Sequence (Q68DX3 770-861): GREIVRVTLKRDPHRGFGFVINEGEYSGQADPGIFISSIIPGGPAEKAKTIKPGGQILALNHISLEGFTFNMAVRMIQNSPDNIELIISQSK
Assay: holdup assay
Set-up: key: below the threshold = too weak to quantify, mostly under pKd 3.1 to 4
Settings: plain residues with an end cap or a label only (N-terminal biotin on a linker: ado-ado)

| pKd | Binder |
| --- | --- |
| below the threshold | QELLEYETTV [XKR7, Q5GH72] |

Molecular target: T10, APBA3_1, O96018
Assay: holdup assay
Set-up: key: below the threshold = too weak to quantify, mostly under pKd 3.1 to 4
Settings: plain residues with an end cap or a label only (N-terminal biotin on a linker: ado-ado)

| pKd | Binder |
| --- | --- |
| below the threshold | QELLEYETTV [XKR7, Q5GH72] |

Molecular target: Inadl_4, Q8NI35
Sequence (Q8NI35 547-651): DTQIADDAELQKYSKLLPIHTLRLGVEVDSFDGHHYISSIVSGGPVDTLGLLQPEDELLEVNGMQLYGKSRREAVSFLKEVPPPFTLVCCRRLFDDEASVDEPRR
Assay: holdup assay
Set-up: key: below the threshold = too weak to quantify, mostly under pKd 3.1 to 4
Settings: plain residues with an end cap or a label only (N-terminal biotin on a linker: ado-ado)

| pKd | Binder |
| --- | --- |
| below the threshold | QELLEYETTV [XKR7, Q5GH72] |

Molecular target: T11, RHPN1, Q8TCX5
Assay: holdup assay
Set-up: key: below the threshold = too weak to quantify, mostly under pKd 3.1 to 4
Settings: plain residues with an end cap or a label only (N-terminal biotin on a linker: ado-ado)

| pKd | Binder |
| --- | --- |
| 4.66 | QELLEYETTV [XKR7, Q5GH72] |

Molecular target: PTPN3, P26045
Sequence (P26045 505-587): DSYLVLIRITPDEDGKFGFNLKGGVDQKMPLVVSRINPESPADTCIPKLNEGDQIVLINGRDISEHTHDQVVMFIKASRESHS
Assay: holdup assay
Set-up: key: below the threshold = too weak to quantify, mostly under pKd 3.1 to 4
Settings: plain residues with an end cap or a label only (N-terminal biotin on a linker: ado-ado)

| pKd | Binder |
| --- | --- |
| 4.85 | QELLEYETTV [XKR7, Q5GH72] |

Molecular target: MAGI2_4, Q86UL8
Sequence (Q86UL8 772-865): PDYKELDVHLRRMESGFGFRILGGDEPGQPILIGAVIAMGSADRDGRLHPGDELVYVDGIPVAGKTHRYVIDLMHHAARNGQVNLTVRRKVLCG
Assay: holdup assay
Set-up: key: below the threshold = too weak to quantify, mostly under pKd 3.1 to 4
Settings: plain residues with an end cap or a label only (N-terminal biotin on a linker: ado-ado)

| pKd | Binder |
| --- | --- |
| 4.26 | QELLEYETTV [XKR7, Q5GH72] |

Molecular target: Inadl_5, Q8NI35
Sequence (Q8NI35 673-780): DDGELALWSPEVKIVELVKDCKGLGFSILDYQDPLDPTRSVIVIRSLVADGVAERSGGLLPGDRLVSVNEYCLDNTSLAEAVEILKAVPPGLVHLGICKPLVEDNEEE
Assay: holdup assay
Set-up: key: below the threshold = too weak to quantify, mostly under pKd 3.1 to 4
Settings: plain residues with an end cap or a label only (N-terminal biotin on a linker: ado-ado)

| pKd | Binder |
| --- | --- |
| 3.55 | QELLEYETTV [XKR7, Q5GH72] |

Molecular target: T12, PTPN13_1, Q12923
Assay: holdup assay
Set-up: key: below the threshold = too weak to quantify, mostly under pKd 3.1 to 4
Settings: plain residues with an end cap or a label only (N-terminal biotin on a linker: ado-ado)

| pKd | Binder |
| --- | --- |
| below the threshold | QELLEYETTV [XKR7, Q5GH72] |
